Assay results reported in PMC7617879.

Molecular target: catalytic domain of MMP-14 (MMP-14CAT) (human)
Test: enzyme inhibition assay

Ki: 1.57 nM
B1: N-TIMP2-S31PrK, P16035 27-153 (domain or fragment)
chain: CSCSPVHPQQAFCNADVVIRAKAVSEKEVDKGNDIYGNPIKRIQYEIKQIKMFKGPEKDIEFIYTAPSSAVCGVSLDVGGKKEYLIAGKAEGDGKMHITLCDFIVPWDTLSTTQKKSLNHRYQMGCE
modifications: here or on the partner: propargyl lysine (PrK) at position 31
